Measurements: PMC4608255, “ATP binding to neighbouring subunits and intersubunit allosteric coupling underlie proteasomal ATPase function” (Nature Communications, 2015)

Key:
[1] = molecular target: T1, PAN (Methanocaldococcus jannaschii, UniProt Q58576); experiment: NADH-coupled ATPase assay, Hill equation; format: biochemical; conditions: 50 mM Tris-HCl pH 7.5, 5 mM MgCl2; 100 nM PAN
T1 construct: recombinant from pRSETA, homohexamer
T1 sequence (Q58576 1-430): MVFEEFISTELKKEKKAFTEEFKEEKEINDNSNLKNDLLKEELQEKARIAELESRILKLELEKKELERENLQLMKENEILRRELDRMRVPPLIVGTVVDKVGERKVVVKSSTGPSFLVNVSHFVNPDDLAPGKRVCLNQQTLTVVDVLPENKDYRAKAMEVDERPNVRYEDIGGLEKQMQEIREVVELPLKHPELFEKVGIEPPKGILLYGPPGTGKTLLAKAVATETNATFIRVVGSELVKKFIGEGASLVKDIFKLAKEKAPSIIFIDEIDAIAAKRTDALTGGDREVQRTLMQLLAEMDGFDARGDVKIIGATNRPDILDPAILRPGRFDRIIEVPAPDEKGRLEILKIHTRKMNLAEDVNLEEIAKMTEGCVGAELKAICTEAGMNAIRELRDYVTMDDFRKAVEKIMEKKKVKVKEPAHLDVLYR
Excerpt: NADH-coupled ATPase assay, Hill equation on PAN | Vmax, KM and Hill coefficient (h) values were obtained by nonlinear regression analysis

[2] = molecular target: archaeal 20S proteasome (UniProt P25156)
Chain of archaeal 20S proteasome (P25156 whole entry, chain 1 of 2): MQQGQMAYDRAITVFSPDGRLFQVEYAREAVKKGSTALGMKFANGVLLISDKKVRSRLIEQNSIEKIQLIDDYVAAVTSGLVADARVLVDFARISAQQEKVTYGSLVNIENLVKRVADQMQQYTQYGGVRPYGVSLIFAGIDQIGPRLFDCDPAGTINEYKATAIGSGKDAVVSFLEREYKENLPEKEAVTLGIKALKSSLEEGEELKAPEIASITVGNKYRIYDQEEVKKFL
Chain of archaeal 20S proteasome (chain, as listed by the source, chain 2 of 2): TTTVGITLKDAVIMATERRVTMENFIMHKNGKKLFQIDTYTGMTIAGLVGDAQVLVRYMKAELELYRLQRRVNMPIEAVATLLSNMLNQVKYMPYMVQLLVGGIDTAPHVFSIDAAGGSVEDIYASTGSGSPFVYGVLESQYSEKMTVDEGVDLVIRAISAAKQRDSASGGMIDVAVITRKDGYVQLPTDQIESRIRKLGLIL

[3] = molecular target: the molecule itself; experiment: native gel or EMSA; native gel of the PAN mutants; conditions not given

**Q.** `Nc1ncnc2c1ncn2[C@@H]1O[C@H](COP(=O)(O)OP(=O)(O)OP(=O)(O)O)[C@@H](O)[C@H]1O` [ATP] was tested. Which Km [1] did it give?
**A.** 261 ± 8 µM

B1: PAN wild type (enzyme)
chain: MVFEEFISTELKKEKKAFTEEFKEEKEINDNSNLKNDLLKEELQEKARIAELESRILKLELEKKELERENLQLMKENEILRRELDRMRVPPLIVGTVVDKVGERKVVVKSSTGPSFLVNVSHFVNPDDLAPGKRVCLNQQTLTVVDVLPENKDYRAKAMEVDERPNVRYEDIGGLEKQMQEIREVVELPLKHPELFEKVGIEPPKGILLYGPPGTGKTLLAKAVATETNATFIRVVGSELVKKFIGEGASLVKDIFKLAKEKAPSIIFIDEIDAIAAKRTDALTGGDREVQRTLMQLLAEMDGFDARGDVKIIGATNRPDILDPAILRPGRFDRIIEVPAPDEKGRLEILKIHTRKMNLAEDVNLEEIAKMTEGCVGAELKAICTEAGMNAIRELRDYVTMDDFRKAVEKIMEKKKVKVKEPAHLDVLYR
**Q.** For B1, which LFP peptide hydrolysis by the 20S (20 nM) with PAN (80 nM) and 10 μM ATPγS (gate opening) [2] is on record?
**A.** 9 fold

B2: PAN-R331A (enzyme, UniProt Q58576 1-430, looked up)
chain: MVFEEFISTELKKEKKAFTEEFKEEKEINDNSNLKNDLLKEELQEKARIAELESRILKLELEKKELERENLQLMKENEILRRELDRMRVPPLIVGTVVDKVGERKVVVKSSTGPSFLVNVSHFVNPDDLAPGKRVCLNQQTLTVVDVLPENKDYRAKAMEVDERPNVRYEDIGGLEKQMQEIREVVELPLKHPELFEKVGIEPPKGILLYGPPGTGKTLLAKAVATETNATFIRVVGSELVKKFIGEGASLVKDIFKLAKEKAPSIIFIDEIDAIAAKRTDALTGGDREVQRTLMQLLAEMDGFDARGDVKIIGATNRPDILDPAILRPGAFDRIIEVPAPDEKGRLEILKIHTRKMNLAEDVNLEEIAKMTEGCVGAELKAICTEAGMNAIRELRDYVTMDDFRKAVEKIMEKKKVKVKEPAHLDVLYR
notes: PAN, archaeal proteasomal ATPase; Vector pRSETA; source: expression vector in pRSETA made by site-directed mutagenesis
**Q.** With B2 as the molecule, how does the “stoichiometry N” value [3] read?
**A.** 6

B3: PAN-R328/331A (enzyme, UniProt Q58576 1-430, looked up)
chain: MVFEEFISTELKKEKKAFTEEFKEEKEINDNSNLKNDLLKEELQEKARIAELESRILKLELEKKELERENLQLMKENEILRRELDRMRVPPLIVGTVVDKVGERKVVVKSSTGPSFLVNVSHFVNPDDLAPGKRVCLNQQTLTVVDVLPENKDYRAKAMEVDERPNVRYEDIGGLEKQMQEIREVVELPLKHPELFEKVGIEPPKGILLYGPPGTGKTLLAKAVATETNATFIRVVGSELVKKFIGEGASLVKDIFKLAKEKAPSIIFIDEIDAIAAKRTDALTGGDREVQRTLMQLLAEMDGFDARGDVKIIGATNRPDILDPAILAPGAFDRIIEVPAPDEKGRLEILKIHTRKMNLAEDVNLEEIAKMTEGCVGAELKAICTEAGMNAIRELRDYVTMDDFRKAVEKIMEKKKVKVKEPAHLDVLYR
notes: PAN, archaeal proteasomal ATPase; Vector pRSETA; also called double mutant; double-arginine mutant; source: expression vector in pRSETA made by site-directed mutagenesis
**Q.** Which “stoichiometry N” value [3] does the source give for B3 here?
**A.** 6

B4: PAN-R328A (enzyme, UniProt Q58576 1-430, looked up)
chain: MVFEEFISTELKKEKKAFTEEFKEEKEINDNSNLKNDLLKEELQEKARIAELESRILKLELEKKELERENLQLMKENEILRRELDRMRVPPLIVGTVVDKVGERKVVVKSSTGPSFLVNVSHFVNPDDLAPGKRVCLNQQTLTVVDVLPENKDYRAKAMEVDERPNVRYEDIGGLEKQMQEIREVVELPLKHPELFEKVGIEPPKGILLYGPPGTGKTLLAKAVATETNATFIRVVGSELVKKFIGEGASLVKDIFKLAKEKAPSIIFIDEIDAIAAKRTDALTGGDREVQRTLMQLLAEMDGFDARGDVKIIGATNRPDILDPAILAPGRFDRIIEVPAPDEKGRLEILKIHTRKMNLAEDVNLEEIAKMTEGCVGAELKAICTEAGMNAIRELRDYVTMDDFRKAVEKIMEKKKVKVKEPAHLDVLYR
notes: as for B2
**Q.** With B4 as the molecule, how does the “stoichiometry N” value [3] read?
**A.** 6
